The values below come from the Human Domainome abundance scans (Beltran et al. 2025).

± gives the uncertainty stated by the source.

First the molecules themselves.
B1: Transitional endoplasmic reticulum ATPase, residues 26 to 106; numbered along this chain, P55072 (parent)
chain: LIVDEAINEDNSVVSLSQPKMDELQLFRGDTVLLKGKKRREAVCIVLSDDTCSDEKIRMNRVVRNNLRVRLGDVISIQPCP

The data set covers variants of B1. The data set can be described thus: abundance fitness (aPCA) (normalised: wild type 0, dead -1); higher = more abundant; growth selection in yeast, the domain comes from the species named. The conditions noted are these: Homo sapiens.
For R40T, the abundance fitness stood at 0.086 ± 0.082.

With R40W, the abundance fitness is -0.059 ± 0.16. Take R40A: the abundance fitness is 0.097 ± 0.086. The value for R40N was -0.075 ± 0.12; that for R40C was -0.071 ± 0.12. The value for R40V was 0.027 ± 0.045; that for R40G was 0.107 ± 0.055; that for R40S was -0.061 ± 0.054. The figure for R40M is -0.077 ± 0.12; for R40E it is -0.051 ± 0.13. Consider R40Q, for which the abundance fitness was -0.039 ± 0.15. The value for R40D was -0.085 ± 0.099. The figure for R40L is -0.033 ± 0.056; for R40Y it is 0.073 ± 0.17; for R40I it is -0.046 ± 0.13. The figure for R40H is -0.139 ± 0.11. R40F: the abundance fitness was -0.006 ± 0.13.

With R40P, the abundance fitness was -0.122 ± 0.11.

As to E41C, the abundance fitness is -0.399 ± 0.1. The figure for E41H is -0.167 ± 0.14; for E41V it is -0.213 ± 0.056; for E41P it is -0.131 ± 0.1. The figure for E41G is -0.269 ± 0.061; for E41K it is 0.045 ± 0.095. The value for E41I was -0.312 ± 0.14; that for E41S was -0.09 ± 0.057; that for E41N was -0.383 ± 0.2. As to E41D, the abundance fitness is -0.125 ± 0.082. The figure for E41Q is -0.098 ± 0.43; for E41L it is -0.296 ± 0.062; for E41T it is -0.123 ± 0.098. The value for E41Y was -0.14 ± 0.15; that for L47A was 0.082 ± 0.061. The value for L47E was 0.055 ± 0.09; that for L47C was -0.05 ± 0.087; that for L47D was -0.056 ± 0.076. As to D30F, the abundance fitness is -0.638 ± 0.32.

As for D30N, the abundance fitness is -0.176 ± 0.088.

With D30R, the abundance fitness was -0.258 ± 0.05. The value for D30H was -0.11 ± 0.12; that for D30Y was -0.732 ± 0.2; that for D30I was -0.68 ± 0.29. The value for D30C was 0.035 ± 0.12; that for D30M was -0.047 ± 0.1; that for D30G was -0.107 ± 0.041. The value for D30L was -0.468 ± 0.07; that for D30A was 0.005 ± 0.063. In the case of D30K, the abundance fitness is -0.257 ± 0.093. The figure for D30S is -0.175 ± 0.064.

Regarding D30T, the abundance fitness was -0.051 ± 0.068.

Take D30E: the abundance fitness was found to be 0.108 ± 0.087. The figure for D30W is -0.286 ± 0.079; for D30Q it is 0.103 ± 0.1.

On to V43S, for which the abundance fitness is -0.052 ± 0.076.

With V43Y, the abundance fitness came out at 0.072 ± 0.14. The value for V43T was -0.068 ± 0.076. V43P: the abundance fitness was -0.26 ± 0.085.

With V43K, the abundance fitness is -0.006 ± 0.13.

As to V43Q, the abundance fitness was 0.147 ± 0.12. The figure for V43R is 0.07 ± 0.053; for V43N it is -0.176 ± 0.19. As for V43L, the abundance fitness is -0.099 ± 0.066. The value for V43I was -0.038 ± 0.097.

For the variant V43A, the abundance fitness was -0.026 ± 0.064. On to V43D, for which the abundance fitness was -0.093 ± 0.11. The figure for V43C is -0.012 ± 0.1.

As for V43G, the abundance fitness was -0.289 ± 0.06.

V43M: the abundance fitness was 0.098 ± 0.14. The figure for V43E is 0.063 ± 0.089; for V43W it is 0.03 ± 0.14; for L33Q it is -0.109 ± 0.087.

Consider L33Y, for which the abundance fitness was 0.086 ± 0.12. Turning to L33V, the abundance fitness came out at 0.042 ± 0.061.

Regarding L33D, the abundance fitness was -0.572 ± 0.064. The figure for L33G is -0.344 ± 0.038. The figure for L33F is -0.318 ± 0.17; for L33W it is -0.155 ± 0.065. As to L33E, the abundance fitness is -0.19 ± 0.081.

L33T: the abundance fitness was -0.03 ± 0.088. Consider L33K, for which the abundance fitness is -0.045 ± 0.1. The value for L33M was 0.019 ± 0.083; that for L33H was -0.031 ± 0.11.

As for L33C, the abundance fitness was found to be 0.055 ± 0.094. Take L33I: the abundance fitness was -0.23 ± 0.14. The figure for L33P is -0.955 ± 0.13; for L33S it is -0.122 ± 0.056. Regarding L33R, the abundance fitness was -0.068 ± 0.046.

With I45G, the abundance fitness was -0.06 ± 0.036. The figure for I45K is -0.002 ± 0.13; for I45D it is -0.183 ± 0.084.

As for I45W, the abundance fitness was -0.176 ± 0.086. The value for I45C was 0.008 ± 0.063; that for I45P was -0.157 ± 0.12.

Take I45H: the abundance fitness was -0.088 ± 0.084.

With I45A, the abundance fitness was -0.006 ± 0.057. The figure for I45E is 0.035 ± 0.1; for I45S it is -0.028 ± 0.059.

For the variant I45M, the abundance fitness is -0.137 ± 0.064. The value for I45F was -0.018 ± 0.076; that for I45R was 0.054 ± 0.055. The figure for I45L is -0.016 ± 0.059; for I45Y it is -0.029 ± 0.11. On to I45N, for which the abundance fitness was found to be 0.036 ± 0.13. The figure for I45V is 0.028 ± 0.032. The value for F27T was 0.127 ± 0.06; that for F27S was 0.085 ± 0.045. On to F27V, for which the abundance fitness stood at 0.044 ± 0.048. The value for F27M was -0.045 ± 0.077; that for F27N was -0.022 ± 0.12; that for F27E was 0.095 ± 0.081. Consider F27H, for which the abundance fitness came out at 0.028 ± 0.099. As to F27P, the abundance fitness is -0.238 ± 0.084. Take F27W: the abundance fitness was -0.101 ± 0.06. The figure for F27L is 0.026 ± 0.052; for F27K it is -0.023 ± 0.092; for F27R it is 0.009 ± 0.057.

For F27A, the abundance fitness came to 0.042 ± 0.048.

Regarding F27Q, the abundance fitness was -0.098 ± 0.1. For F27Y, the abundance fitness was -0.109 ± 0.075. The value for F27D was 0.069 ± 0.1; that for F27C was 0.045 ± 0.076; that for F27G was 0.016 ± 0.05. The value for F27I was -0.04 ± 0.062. The figure for K35A is -0.096 ± 0.066; for K35D it is -0.455 ± 0.18. With K35T, the abundance fitness is 0.117 ± 0.094.

Turning to K35N, the abundance fitness was 0.032 ± 0.16.

On to K35P, for which the abundance fitness was -0.869 ± 0.27. The figure for K35M is -0.02 ± 0.082. The value for K35F was -0.247 ± 0.2. On to K35E, for which the abundance fitness was -0.116 ± 0.16. The figure for K35W is -0.154 ± 0.17; for K35G it is -0.088 ± 0.071; for K35Y it is -0.229 ± 0.21.

Turning to K35L, the abundance fitness is -0.058 ± 0.086.

Consider K35Q, for which the abundance fitness was 0.078 ± 0.088. The value for K35R was 0.006 ± 0.081; that for K35C was 0.04 ± 0.18; that for K35S was 0.031 ± 0.074. The value for V32P was -1.09 ± 0.28; that for V32R was -0.98 ± 0.11. V32Q: the abundance fitness is -0.785 ± 0.18.

As for V32A, the abundance fitness is -0.18 ± 0.057. As to V32T, the abundance fitness was -0.827 ± 0.19. The value for V32C was 0.007 ± 0.094. The figure for V32M is -0.166 ± 0.1; for V32G it is -0.587 ± 0.049; for V32E it is -1.05 ± 0.33. As for V32W, the abundance fitness was -0.988 ± 0.22. The figure for V32F is -0.832 ± 0.28; for V32S it is -0.854 ± 0.11; for V32I it is -0.016 ± 0.07. The figure for V46C is -0.048 ± 0.095.

Regarding V46I, the abundance fitness is -0.175 ± 0.07. The figure for V46W is -0.74 ± 0.19; for V46F it is -0.688 ± 0.15.

As to V46L, the abundance fitness was -0.183 ± 0.046. The figure for V46M is -0.376 ± 0.12. The figure for V46D is -0.804 ± 0.17; for V46P it is -0.439 ± 0.1; for V46E it is -0.649 ± 0.1. The value for V46S was -0.493 ± 0.078; that for V46K was -0.528 ± 0.21; that for V46N was -0.749 ± 0.21. Consider V46T, for which the abundance fitness is -0.147 ± 0.085.

V46R: the abundance fitness was -0.951 ± 0.15. Consider V46Y, for which the abundance fitness is -0.911 ± 0.23.
